# Reference: patent publication US20250163404A1, “PHAGE DISPLAY-BASED CELL-PENETRATING PEPTIDE DISCOVERY PLATFORM AND METHODS OF MAKING AND USING THE SAME” (Eli Lilly and Company, priority 2022, published 2025)
# B1: H4: engineered M13 IX104 phage clone with FLVIR cathepsin substrate copies in pIII GS2 linker (nucleic acid)
# DNA: GCTGAAACTGTTGAAAGTTGTTTAGCAAAATCCCATACAGAAAATTCATTTACTAACGTCTGGAAAGACGACAAAACTTTAGATCGTTACGCTAACTATGAGGGCTGTCTGTGGAATGCTACAGGCGTTGTAGTTTGTACTGGTGACGAAACTCAGTGTTACGGTACATGGGTTCCTATTGGGCTTGCTATCCCTGAAAATGAGGGTGGTGGCTCTGAGGGTGGCGGTTCTGAGGGTGGCGGTTCTGAGGGTGGCGGTACTAAACCTCCTGAGTACGGTGATACACCTATTCCGGGCTATACTTATATCAACCCTCTCGACGGCACTTATCCGCCTGGTACTGAGCAAAACCCCGCTAATCCTAATCCTTCTCTTGAGGAGTCTCAGCCTCTTAATACTTTCATGTTTCAGAATAATAGGTTCCGAAATAGGCAGGGGGCATTAACTGTTTATACGGGCACTGTTACTCAAGGCACTGACCCCGTTAAAACTTATTACCAGTACACTCCTGTATCATCAAAAGCCATGTATGACGCTTACTGGAACGGTAAATTCAGAGACTGCGCTTTCCATTCTGGCTTTAATGAGGATTTATTTGTTTGTGAATATCAAGGCCAATCGTCTGACCTGCCTCAACCTCCTGTCAATGCTGGCGGCGGCTCTTTTTTAGTTATTAGAGGTGGTGGTTCTGGTGGCGGCTCTGAGGGTGGTGGCTCTGAGTTTTTAGTTATTAGAGGTGGCGGTTCTGAGGGTGGCGGCTCTGAGGGAGGCGGTTCCGGTGGTGGCTCTGGTTCCGGTGATTTTGATTATGAAAAGATGGCAAACGCTAATAAGGGGGCTATGACCGAAAATGCCGATGAAAACGCGCTACAGTCTGACGCTAAAGGCAAACTTGATTCTGTCGCTACTGATTACGGTGCTGCTATCGATGGTTTCATTGGTGACGTTTCCGGCCTTGCTAATGGTAATGGTGCTACTGGTGATTTTGCTGGCTCTAATTCCCAAATGGCTCAAGTCGGTGACGGTGATAATTCACCTTTAATGAATAATTTCCGTCAATATTTACCTTCCCTCCCTCAATCGGTTGAATGTCGCCCTTTTGTCTTTAGCGCTGGTAAACCATATGAATTTTCTATTGATTGTGACAAAATAAACTTATTCCGTGGTGTCTTTGCGTTTCTTTTATATGTTGCCACCTTTATGTATGTATTTTCTACGTTTGCTAACATACTGCGTAATAAGGAGTCT
# Legend:
# [1] = test system: CHO cell lysosomal extracts (active cathepsins); assay: Phage infectivity after incubation with CHO cell lysosomal extract; format: biochemical, Chinese hamster
# Method: (§1) Subcellular fractionation: cytosolic and endosomal extraction are prepared according to manufactures' protocols from ThermoFisher Scientific (Cat. No. 89842) and Invent Biotechnologies (Cat. No. #ED-028), respectively. The starting cell number is 5×10^6 cells for one cytosolic extraction, and 3×10^7 cells for one endosome extraction. Lysosomal isolation from different cell types are optimized based on an Abcam kit (Cat. No. ab234047) for homogenization step and increased isolation scale. The starting cell number for one lysosomal isolation is 2×10^8 cells.
# (§2) Ten rounds of overnight phage culture described above are grown to evaluate substrate sequence retention for each phage clone. Sanger sequencing is performed after each round of phage culture to confirm the substrate insertion. Final phage clones with the substrate insertion are then evaluated for cathepsin accessibility by incubation with lysosomal extract from different mammalian cell lines.
# The accessibility of the engineered GS2 linker of the 18 phage clones to active cathepsins (confirmed by fluorogenic cleaving assay) is assessed by incubating phage clones with CHO cell lysosomal extracts at 37° C. The assessment is repeated 4 times with independently isolated lysosome under acidic environment (about pH 5). […] (as shown in the representative graph in FIG. 2).
# (§3) The accessibility of clone A1 and H4 to active cathepsins is further assessed in lysosomal extracts from CaCo2 and HEK293 cells in addition to CHO cells. […] (see, FIG. 3). CaCo2 lysosome: clone A1 (mean=79.83%, SEM=9.5%) vs. H4 (mean=34.63%, SEM=13.5%), p=0.22, n=3. HEK293 lysosome: clone A1 (mean=75.1%, SEM=9.7%) vs. H4 (mean=9.5%, SEM=1.6%), p=0.018, n=3. CHO lysosome: clone A1 (mean=95.58%, SEM=13.8%) vs. H4 (mean=2.738%, SEM=0.8%), p<0.0001, n=6.
# [2] = test system: HEK293 lysosome (lysosomal cathepsins); assay: Phage infectivity after incubation with HEK293 lysosomal extract; format: biochemical; conditions: 30 min. incubation at 37° C., n=3
# Method: as §1, §2
# as §3, with “CHO lysosome: clone A1 (mean=95.58%, SEM=13.8%) vs. H4 (mean=2.738%, SEM=0.8%), p<0.0001, n=6.” left out
# [3] = test system: CaCo2 lysosome (lysosomal cathepsins); assay: Phage infectivity after incubation with CaCo2 lysosomal extract; format: biochemical; conditions: 30 min. incubation at 37° C., n=3
# Method: as §1, §2
# as §3, with “CHO lysosome: clone A1 (mean=95.58%, SEM=13.8%) vs. H4 (mean=2.738%, SEM=0.8%), p<0.0001, n=6.” left out
molecule,measurement,setting,value
B1,infectivity reduction,"[1]; CHO lysosomal extract, 37° C., about pH 5",9800
same,infectivity (mean),"[1]; CHO lysosomal extract, 37° C., about pH 5, n=4",2%
same,infectivity (mean),"[1]; CHO lysosome, 30 min. incubation at 37° C., n=6",2.738%
same,infectivity (mean),[2],9.5%
same,infectivity (mean),[3],34.63%
